Results: the supplement of paper PMC7125110
± gives the standard error. This sample holds only a part of the variants without activity.

B1: glmS ribozyme (parent)
chain: AUAAAAGCGCCAGAACUACAGAAAUGUAGUUGACGAGGAGGAGGUUUAUCGAAUUUUCGGCGGAUGCCUCCAAA

Key:
Conditions in all cases: with glucosamine-6-phosphate
glucosamine-6-phosphate [1] = variants of: B1; assay: self-cleavage kobs at 160 uM GlcN6P; higher = faster cleavage; RNA array
Procedure, shortened: (§1)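 Over ~14 h at 37 °C, tiles were imaged as glucosamine-6-phosphate (40 μM to 10 mM) in HEPES/KCl/Mg(OAc)2 buffer flowed across sequenced MiSeq chips. The chips carried barcoded ribozyme variants transcribed in situ by E. coli RNA polymerase and tracked with a hybridised Cy3 probe. After normalisation to baseline and to non-cleaving reference variants, one- or two-exponential decay fits of per-tile medians gave kobs. kcat and KM followed from weighted Michaelis–Menten fits across concentrations.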

glucosamine-6-phosphate [2] = variants of: B1; assay: self-cleavage kobs at 640 uM GlcN6P; higher = faster cleavage; RNA array
Procedure, shortened: as §1

glucosamine-6-phosphate [3] = variants of: B1; assay: self-cleavage kobs at 2500 uM GlcN6P; higher = faster cleavage; RNA array
Procedure, shortened: as §1

glucosamine-6-phosphate [4] = variants of: B1; assay: self-cleavage kobs at 10000 uM GlcN6P; higher = faster cleavage; RNA array
Procedure, shortened: as §1

Variant	self-cleavage kobs at 160 uM GlcN6P (glucosamine-6-phosphate [1]) [s⁻¹]	self-cleavage kobs at 640 uM GlcN6P (glucosamine-6-phosphate [2]) [s⁻¹]	self-cleavage kobs at 2500 uM GlcN6P (glucosamine-6-phosphate [3]) [s⁻¹]	self-cleavage kobs at 10000 uM GlcN6P (glucosamine-6-phosphate [4]) [s⁻¹]
U30C G62A C68G	< 1e-05	< 1e-05	< 1e-05	< 1e-05
A14U A33C G59A	< 1e-05	< 1e-05	< 1e-05	–
C16U G29C C67A	0.00011 ± 2.1e-05	0.000258 ± 4.5e-05	0.00106 ± 0.00017	–
G13A C58G G59U	< 1e-05	–	–	–
A12U C16U U54A	0.00397 ± 0.00072	0.00766 ± 0.0025	–	–
C16G G51U G60C	< 1e-05	< 1e-05	< 1e-05	–
A15U A39C C58A C70G	< 1e-05	–	–	–
A14G U31G G41C	< 1e-05	< 1e-05	–	6.26e-05 ± 2.5e-05
A15C C50G G66U	5.42e-05 ± 1.8e-05	–	–	–
A14C A23C G43C	< 1e-05	< 1e-05	< 1e-05	–
U30G G38C	< 1e-05	< 1e-05	< 1e-05	–
G29U G43A C70A	< 1e-05	–	–	–
A12U A33C A39G C50G A52G	< 1e-05	< 1e-05	–	–
G13U C34A G40U C58A	< 1e-05	< 1e-05	–	–
C16U U55G U69G	9.72e-05 ± 2.1e-05	8.62e-05 ± 2.4e-05	5.05e-05 ± 1.1e-05	4.21e-05 ± 1.4e-05
A12G G35U G51U C68G U69A	< 1e-05	< 1e-05	–	–
C16U A53G U54C	0.000683 ± 0.00013	0.00193 ± 0.00028	0.00421 ± 0.00075	–
A15C A39U U47A U54G	4.07e-05 ± 1.7e-05	0.000184 ± 4.1e-05	0.000635 ± 8.5e-05	–
C11U U56A G66A	4.3e-05 ± 1.4e-05	8.42e-05 ± 1.7e-05	0.000197 ± 4.1e-05	–
A15G U45A U56G A64C C70A	< 1e-05	< 1e-05	< 1e-05	–
C16U U31A G43U A52U	< 1e-05	< 1e-05	< 1e-05	–
C16U C58U	< 1e-05	–	2.45e-05 ± 6.4e-06	9.48e-05 ± 8.5e-06
C11G U46G G62A	< 1e-05	< 1e-05	< 1e-05	< 1e-05
C11G U49G U57C	< 1e-05	–	–	–
A15C U31G U69G	4.96e-05 ± 2e-05	0.000378 ± 9.2e-05	–	–
